Experimental data as given in the supplement of paper PMC10126150.
± gives the standard deviation of the averaged measurements.

tested on: ATP; assay: switch fluorescence ratio, 500 uM ATP over buffer (Cy3 cluster intensity, sum of 5 cycles each) (fold (ratio)); higher = stronger signal-on switching upon ATP binding; sequences stand for … in TCGTCGGCAGCGTCAGATGTGTATAAGAGACAGTTTTTTTTTTTTTTTTTTTTTTTTT…TC; conditions: aptamer strand: ATP DNA aptamer (quencher-CACCTGGGGGAGTATTGCGGAGGAAGG + anchor), 100 nM annealed; ATP concentration: 500 uM
Method in brief: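 The quencher-labelled ATP aptamer, at 100 nM, was annealed to Cy3-labelled switching-strand clusters on a modified Illumina MiSeq flow-cell. The clusters were imaged in selection buffer, then after 15 min with 500 uM ATP at 22 °C, and this buffer/ATP cycle ran five times with NaOH stripping and re-annealing between runs. Per-cluster fluorescence ratios, summed target-cycle over summed buffer-cycle Cy3 intensity, were averaged per switch-domain sequence. Clusters outside 100-1000 RFU were excluded.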
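Note: ATP exposure 15 min at 22 °C before imaging.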

Sequence	switch fluorescence ratio
TTCTTCGACA	1.08 ± 0.034
GTTTGTAGGC	0.9641 ± 0.0017
AACTTGGCAT	1.02 ± 0.011
GAGTCAGTAT	1.03 ± 0.039
TTGTATAGGA	0.998 ± 0.029
CGCGTCAACG	1.01 ± 0.027
TAAGGAATGC	1.54 ± 0.035
GTTTCAACTG	1 ± 0.12
CTTGGAGTTG	1.02 ± 0.07
CACAATAGAT	1.02 ± 0.022
TTCTGCGTAT	1.01 ± 0.036
AAAAGGGGGG	1.02 ± 0.044
ATGGACGTGT	0.9935 ± 0.0033
TTTTTTACCT	1.2 ± 0.015
ACGGGTTTGG	1.01 ± 0.023
AGGTTTTCTA	1.012 ± 0.0036
TCAGGCGTTT	0.996 ± 0.024
AAGCAACAGT	1.094 ± 0.0035
ATATTTTTTT	1 ± 0.03
GAGGGTGGGG	1.01 ± 0.04
GGAGTAAAGA	0.992 ± 0.037
GGTTTATAAA	0.971 ± 0.051
TTGCGTGGTG	0.959 ± 0.077

Sequence	switch fluorescence ratio
TGGGCG	0.994 ± 0.018
CAGAGGATCA	0.996 ± 0.015
GCACTTGGGG	0.998 ± 0.057
GGGGTACGGC	1.03 ± 0.041
AGAAGGGGAT	1.01 ± 0.021
AATTTTTACT	1.05 ± 0.1
AAGGGGGAGA	0.994 ± 0.03
TGGAATATTT	1.03 ± 0.044
TAGGGGTCTG	1.032 ± 0.0059
AACCGGCTTA	0.999 ± 0.026
TATTTGGGTC	0.98285 ± 0.00046
CTTAGATAAA	0.985 ± 0.026
ATAGAACGGG	1.01 ± 0.025
TTTGAGTCCG	1.04 ± 0.065
GTTTGCAGCA	1.03 ± 0.027
TAGGCGGGGA	1.07 ± 0.059
GGGGGTGTGG	0.999 ± 0.035
TTCAAGTTGG	0.974 ± 0.024
CAGGTAGATG	0.9959 ± 0.0086
ATGGGCTGAG	0.992 ± 0.017
TGATCAAGGA	0.997 ± 0.041
CTGTCGTGTC	0.9934 ± 0.003
AGGTTTAAGG	0.9726 ± 0.0058

Sequence	switch fluorescence ratio
TTGAATTCGG	0.9841 ± 0.0039
CGCATTGGGG	1.13 ± 0.037
ATTGTGTTTT	0.99 ± 0.062
GAATTTGAGT	0.9741 ± 0.0089
CCTATGGGGG	1.49 ± 0.66
CCCATCCCCG	1.2 ± 0.084
GATTATCATT	0.9669 ± 0.0093
TTTTTATTGG	0.985 ± 0.025
GCAGGAATTT	1 ± 0.038
CGAGACGGGG	0.959 ± 0.042
AGATAATTCT	1.02 ± 0.013
GAGCGTAACG	0.9999 ± 0.0027
GCTGATTTAT	0.982 ± 0.018
ATATGGCACG	1.032 ± 0.0014
CTCGAGAGCT	0.973 ± 0.018
ATCAAGCCAA	1.005 ± 0.0018
GAATTCAGTG	0.9953 ± 0.0096
GATTCTCTAT	1.008 ± 0.0033
AGCTTCGGTC	0.953 ± 0.0098
TGAACTTGAG	1.01 ± 0.0062
TACAGGTTTT	0.972 ± 0.073
CGGAAACGTG	1.01 ± 0.028
GTTTCGAAAA	0.9855 ± 0.0074

Sequence	switch fluorescence ratio
TTTTCTGCCT	1.07 ± 0.089
GGCACTAAGT	1.04 ± 0.036
AGGGGCTTGC	0.956 ± 0.036
GGAGGGCACG	0.967 ± 0.053
TAGGCAGCGG	0.991 ± 0.023
CATGGGATGG	1.01 ± 0.0074
ACTGTAGTTT	1.11 ± 0.07
AGCATTGGTT	1.02 ± 0.035
GATGATGCTG	1.03 ± 0.017
TCAAAAGTCG	1.03 ± 0.012
CGGTCCCTGC	1.01 ± 0.1
GGGTAATGTA	1.02 ± 0.014
TTTAAAAGCT	1.07 ± 0.038
AATGGGACTT	1.02 ± 0.015
AACTTTATTT	0.992 ± 0.018
CGATGTGCCC	0.983 ± 0.024
GGATCATCGC	1.027 ± 0.0065
CAACACGGTG	1.08 ± 0.038
GCGGAAGGAG	1 ± 0.016
GAGGAAGGAC	1.04 ± 0.014
TTCCCTTATG	0.976 ± 0.017
AATGTCGCGA	1 ± 0.025
TTTAGGCCTC	1.01 ± 0.014

Sequence	switch fluorescence ratio
AGAGCATATG	1.02 ± 0.017
GACTAATTGG	0.957 ± 0.013
TGAGTTGAAG	0.9869 ± 0.0056
GGGTTAGTTT	0.992 ± 0.049
CTCGGAACTA	1.04 ± 0.03
AAAGGATGAT	0.9978 ± 0.0031
CGTTCATTTG	0.993 ± 0.028
CTGGAAAACC	1.02 ± 0.0058
TTAATTTGCA	1.01 ± 0.04
TAATAATCTA	1.01 ± 0.027
GGATGCAGTT	0.99 ± 0.026
TGTGAAATAG	1.02 ± 0.028
GGGTGGTGTG	0.99 ± 0.068
CAAGTCCGTT	1 ± 0.037
TTTCGCACTG	1.1 ± 0.018
ATCATTCTTC	0.977 ± 0.034
CGTTTAGTTG	1.002 ± 0.009
GTATTTACTT	1.02 ± 0.012
GCGTCTAGGA	0.9839 ± 0.0033
TTTCCGGGGG	0.996 ± 0.022
ATTTGTGTTA	1.01 ± 0.013
ACTCTTTTAC	1.291 ± 0.0056
AGGGGCTTTT	0.998 ± 0.012

Sequence	switch fluorescence ratio
AAGCCAGGCC	1.03 ± 0.025
AAACTTGTAC	1.1 ± 0.036
TTCAATTTGG	1.01 ± 0.021
TTTTGAACGC	1.065 ± 0.0016
GGCATTTGGT	0.993 ± 0.025
TCATGGGGTC	0.975 ± 0.022
AAGTTTATTT	0.973 ± 0.051
TGGAGGAGGG	1 ± 0.032
CACTTATTCT	0.973 ± 0.017
TCCTAGGCGC	1.126 ± 0.0049
GGAAAGGTTT	1.01 ± 0.064
GGGGTGTGCT	1.1 ± 0.16
AGATTCATTT	0.984 ± 0.021
GTTATATGTG	0.982 ± 0.055
AGGTGGCATT	1.04 ± 0.015
ATTATGGCGT	0.999 ± 0.013
GTGGCGGGGG	1.01 ± 0.026
AAGGCCTTCG	1.12 ± 0.021
ACCGGGCGCC	0.967 ± 0.027
ATGTTGGGGG	0.989 ± 0.018
TGAAAAAAAA	0.971 ± 0.025
TGTAGGTTCT	1.06 ± 0.051
CGGCCGGGGA	1.14 ± 0.19

Sequence	switch fluorescence ratio
GGGGATCAGC	0.9912 ± 0.0036
GGTACACAGC	1.02 ± 0.015
TGCAAATTGC	0.997 ± 0.019
TGAGAGTTTT	0.978 ± 0.036
CATAGCCGGT	1.012 ± 0.0031
CCGGCTGAGG	1.03 ± 0.017
GTGATATCTG	0.98 ± 0.038
AGGGCGCGGA	1.05 ± 0.016
TTAGTGGGTA	0.981 ± 0.082
GGGGCACGCT	0.999 ± 0.03
TAGGTCCGTT	0.988 ± 0.031
CGGCTGAATT	1 ± 0.003
CTCAATCGGG	1.04 ± 0.021
ACAAGGTGAC	1.082 ± 0.0021
CATTTTGGGA	0.979 ± 0.03
GCACCTATGG	0.979 ± 0.025
CTTATCTGGG	0.999 ± 0.041
TCGTTAGAAG	0.9966 ± 0.0052
TACATCATGG	1.04 ± 0.019
